Tests used:
[1] = biological target: Dimethylformamidase (DMFase) large subunit expressed and purified without the small subunit (Paracoccus sp. strain DMF); assay: SEC
[2] = biological target: Dimethylformamidase (DMFase) α2β2 complex, recombinant wild type (Paracoccus sp. strain DMF); assay: cryo-EM structure

Row | Substance | stoichiometry N [1] | stoichiometry N [2]
1 | Dimethylformamidase (DMFase) large subunit expressed and purified without the small subunit (natural protein) | 2 | 
2 | Dimethylformamidase (DMFase) α2β2 complex, recombinant wild type |  | 2

— doi:10.1101/2019.12.17.879908
